{"source": "the array DNA melting data of Ke et al."}
{"test": "melting temperature; melt of duplexes", "conditions": "sodium 0.0675 M; strand 1 µM", "units": {"Tm": "°C"}}
{"substance": "CGACGTGCCTCATGTGCTG+CAGCACATTTAGCACGTCG ((((((((...((((((((+))))))))...))))))))", "Tm": 47.5}
{"substance": "CGACGTGCATGATGTGCTG+CAGCACATTAGGCACGTCG ((((((((.(.((((((((+)))))))).).))))))))", "Tm": 54}
{"substance": "CGACGTGCGAAATGTGCTG+CAGCACATTATGCACGTCG ((((((((..(((((((((+)))))))))..))))))))", "Tm": 53.6}
{"substance": "CGACGTGCAACATGTGCTG+CAGCACATAACGCACGTCG ((((((((...((((((((+))))))))...))))))))", "Tm": 48.2}
{"substance": "CGACGTGCCCTATGTGCTG+CAGCACATCTAGCACGTCG ((((((((...((((((((+))))))))...))))))))", "Tm": 48}
{"substance": "CGACGTGCGCGATGTGCTG+CAGCACATACTGCACGTCG ((((((((...((((((((+))))))))...))))))))", "Tm": 50.3}
{"substance": "CGACGTGCCTTATGTGCTG+CAGCACATTGAGCACGTCG ((((((((...((((((((+))))))))...))))))))", "Tm": 49.6}
{"substance": "CGACGTGCTCGATGTGCTG+CAGCACATATCGCACGTCG ((((((((...((((((((+))))))))...))))))))", "Tm": 47.8}
{"substance": "CGACGTGCTGTATGTGCTG+CAGCACATAGAGCACGTCG (((((((((.(((((((((+))))))))).)))))))))", "Tm": 55.9}
{"substance": "CGACGTGCTCTATGTGCTG+CAGCACATTAAGCACGTCG (((((((((..((((((((+))))))))..)))))))))", "Tm": 51.1}
{"substance": "CGACGTGCTAAATGTGCTG+CAGCACATATAGCACGTCG ((((((((((.((((((((+)))))))).))))))))))", "Tm": 55.4}
{"substance": "CGACGTGCCAGATGTGCTG+CAGCACATCTCGCACGTCG ((((((((.((((((((((+)))))))))).))))))))", "Tm": 55.9}
{"substance": "CGACGTGCAACATGTGCTG+CAGCACATCAAGCACGTCG ((((((((...((((((((+))))))))...))))))))", "Tm": 47.1}
{"substance": "CGACGTGCATGATGTGCTG+CAGCACATATGGCACGTCG ((((((((...((((((((+))))))))...))))))))", "Tm": 49.7}
{"substance": "CGACGTGCAGCATGTGCTG+CAGCACATGGAGCACGTCG ((((((((..(((((((((+)))))))))..))))))))", "Tm": 54.1}
{"substance": "CGACGTGCACCATGTGCTG+CAGCACATTACGCACGTCG ((((((((...((((((((+))))))))...))))))))", "Tm": 42.4}
{"substance": "CGACGTGCACCATGTGCTG+CAGCACATGCTGCACGTCG (((((((((.(((((((((+))))))))).)))))))))", "Tm": 51.6}
{"substance": "CGACGTGCTAAATGTGCTG+CAGCACATTGTGCACGTCG ((((((((..(((((((((+)))))))))..))))))))", "Tm": 50.7}
{"substance": "CGACGTGCATTATGTGCTG+CAGCACATTAAGCACGTCG ((((((((.(.((((((((+)))))))).).))))))))", "Tm": 50.3}
{"substance": "CGACGTGCGATATGTGCTG+CAGCACATCAGGCACGTCG ((((((((...((((((((+))))))))...))))))))", "Tm": 49.5}
{"substance": "CGACGTGCCGTATGTGCTG+CAGCACATCATGCACGTCG ((((((((...((((((((+))))))))...))))))))", "Tm": 48.9}
{"substance": "CGACGTGCGCAATGTGCTG+CAGCACATGTTGCACGTCG ((((((((...((((((((+))))))))...))))))))", "Tm": 51.5}
{"substance": "CGACGTGCCTCATGTGCTG+CAGCACATGCAGCACGTCG ((((((((..(((((((((+)))))))))..))))))))", "Tm": 52.8}
{"substance": "CGACGTGCTTAATGTGCTG+CAGCACATCTGGCACGTCG ((((((((...((((((((+))))))))...))))))))", "Tm": 49.7}
{"substance": "CGACGTGCAACATGTGCTG+CAGCACATGGGGCACGTCG ((((((((..(((((((((+)))))))))..))))))))", "Tm": 58.9}
{"substance": "CGACGTGCTCGATGTGCTG+CAGCACATTCTGCACGTCG ((((((((...((((((((+))))))))...))))))))", "Tm": 49.4}
{"substance": "CGACGTGCTAGATGTGCTG+CAGCACATGCCGCACGTCG ((((((((...((((((((+))))))))...))))))))", "Tm": 49.2}
{"substance": "CGACGTGCTCTATGTGCTG+CAGCACATAAAGCACGTCG (((((((((.(((((((((+))))))))).)))))))))", "Tm": 54}
{"substance": "CGACGTGCGGAATGTGCTG+CAGCACATGCCGCACGTCG ((((((((((.((((((((+)))))))).))))))))))", "Tm": 62.1}
{"substance": "CGACGTGCTCTATGTGCTG+CAGCACATTTGGCACGTCG ((((((((...((((((((+))))))))...))))))))", "Tm": 50.1}
{"substance": "CGACGTGCCGTATGTGCTG+CAGCACATAGTGCACGTCG ((((((((..(((((((((+)))))))))..))))))))", "Tm": 49.5}
{"substance": "CGACGTGCCTGATGTGCTG+CAGCACATCTGGCACGTCG (((((((((.(((((((((+))))))))).)))))))))", "Tm": 61.1}
{"substance": "CGACGTGCGTGATGTGCTG+CAGCACATCATGCACGTCG ((((((((.((((((((((+)))))))))).))))))))", "Tm": 60.2}
{"substance": "CGACGTGCGACATGTGCTG+CAGCACATGAGGCACGTCG ((((((((..(((((((((+)))))))))..))))))))", "Tm": 55.3}
{"substance": "CGACGTGCTTGATGTGCTG+CAGCACATTGGGCACGTCG ((((((((...((((((((+))))))))...))))))))", "Tm": 50.7}
{"substance": "CGACGTGCTGTATGTGCTG+CAGCACATTCTGCACGTCG ((((((((.(.((((((((+)))))))).).))))))))", "Tm": 52}
{"substance": "CGACGTGCACTATGTGCTG+CAGCACATGAGGCACGTCG ((((((((...((((((((+))))))))...))))))))", "Tm": 47.5}
{"substance": "CGACGTGCATCATGTGCTG+CAGCACATTCAGCACGTCG ((((((((...((((((((+))))))))...))))))))", "Tm": 47.8}
{"substance": "CGACGTGCTCTATGTGCTG+CAGCACATGGAGCACGTCG ((((((((((.((((((((+)))))))).))))))))))", "Tm": 59.7}
{"substance": "CGACGTGCAAGATGTGCTG+CAGCACATGGCGCACGTCG ((((((((...((((((((+))))))))...))))))))", "Tm": 51.3}
{"substance": "CGACGTGCGGAATGTGCTG+CAGCACATTCGGCACGTCG ((((((((.((((((((((+)))))))))).))))))))", "Tm": 59.9}
{"substance": "CGACGTGCTAGATGTGCTG+CAGCACATTCAGCACGTCG (((((((((..((((((((+))))))))..)))))))))", "Tm": 52.8}
{"substance": "CGACGTGCTAAATGTGCTG+CAGCACATTAGGCACGTCG ((((((((..(((((((((+)))))))))..))))))))", "Tm": 53.8}
{"substance": "CGACGTGCGGGATGTGCTG+CAGCACATAAAGCACGTCG ((((((((...((((((((+))))))))...))))))))", "Tm": 53.6}
{"substance": "CGACGTGCCTCATGTGCTG+CAGCACATGGGGCACGTCG (((((((((.(((((((((+))))))))).)))))))))", "Tm": 61.2}
{"substance": "CGACGTGCTCAATGTGCTG+CAGCACATAAAGCACGTCG (((((((((..((((((((+))))))))..)))))))))", "Tm": 52.1}
{"substance": "CGACGTGCGGTATGTGCTG+CAGCACATAGTGCACGTCG ((((((((..(((((((((+)))))))))..))))))))", "Tm": 53}
{"substance": "CGACGTGCGCGATGTGCTG+CAGCACATCACGCACGTCG (((((((((.(((((((((+))))))))).)))))))))", "Tm": 62.2}
{"substance": "CGACGTGCTCCATGTGCTG+CAGCACATCGTGCACGTCG ((((((((.(.((((((((+)))))))).).))))))))", "Tm": 44.7}
{"substance": "CGACGTGCTCCATGTGCTG+CAGCACATTTCGCACGTCG ((((((((...((((((((+))))))))...))))))))", "Tm": 45.7}
{"substance": "CGACGTGCGCCATGTGCTG+CAGCACATAAAGCACGTCG ((((((((...((((((((+))))))))...))))))))", "Tm": 53.6}
{"substance": "CGACGTGCAAGATGTGCTG+CAGCACATTCGGCACGTCG ((((((((...((((((((+))))))))...))))))))", "Tm": 51.3}
{"substance": "CGACGTGCATAATGTGCTG+CAGCACATAAGGCACGTCG ((((((((.(.((((((((+)))))))).).))))))))", "Tm": 51.3}
{"substance": "CGACGTGCGAGATGTGCTG+CAGCACATCTGGCACGTCG ((((((((.((((((((((+)))))))))).))))))))", "Tm": 59}
{"substance": "CGACGTGCCGGATGTGCTG+CAGCACATGGTGCACGTCG ((((((((...((((((((+))))))))...))))))))", "Tm": 47}
{"substance": "CGACGTGCGTGATGTGCTG+CAGCACATAAGGCACGTCG ((((((((.(.((((((((+)))))))).).))))))))", "Tm": 52.7}
{"substance": "CGACGTGCATCATGTGCTG+CAGCACATGATGCACGTCG (((((((((((((((((((+)))))))))))))))))))", "Tm": 64.8}
{"substance": "CGACGTGCGCGATGTGCTG+CAGCACATGAAGCACGTCG ((((((((...((((((((+))))))))...))))))))", "Tm": 54.4}
{"substance": "CGACGTGCATCATGTGCTG+CAGCACATCCAGCACGTCG ((((((((...((((((((+))))))))...))))))))", "Tm": 46.6}
{"substance": "CGACGTGCCGTATGTGCTG+CAGCACATGCTGCACGTCG ((((((((.(.((((((((+)))))))).).))))))))", "Tm": 51.2}
{"substance": "CGACGTGCATTATGTGCTG+CAGCACATACTGCACGTCG (((((((((.(((((((((+))))))))).)))))))))", "Tm": 53.8}
{"substance": "CGACGTGCGTAATGTGCTG+CAGCACATGGCGCACGTCG (((((((((..((((((((+))))))))..)))))))))", "Tm": 57.2}
{"substance": "CGACGTGCTGTATGTGCTG+CAGCACATGTAGCACGTCG (((((((((..((((((((+))))))))..)))))))))", "Tm": 53.3}
{"substance": "CGACGTGCTTAATGTGCTG+CAGCACATTTTGCACGTCG ((((((((..(((((((((+)))))))))..))))))))", "Tm": 52.5}
{"substance": "CGACGTGCTTCATGTGCTG+CAGCACATGTCGCACGTCG ((((((((..(((((((((+)))))))))..))))))))", "Tm": 52.2}
{"substance": "CGACGTGCCGCATGTGCTG+CAGCACATCCCGCACGTCG ((((((((.(.((((((((+)))))))).).))))))))", "Tm": 48.8}
{"substance": "CGACGTGCCGGATGTGCTG+CAGCACATCTCGCACGTCG ((((((((..(((((((((+)))))))))..))))))))", "Tm": 54.1}
{"substance": "CGACGTGCAGAATGTGCTG+CAGCACATTGCGCACGTCG ((((((((..(((((((((+)))))))))..))))))))", "Tm": 52.1}
{"substance": "CGACGTGCAGGATGTGCTG+CAGCACATCCGGCACGTCG ((((((((.((((((((((+)))))))))).))))))))", "Tm": 62.2}
{"substance": "CGACGTGCCACATGTGCTG+CAGCACATTCCGCACGTCG ((((((((...((((((((+))))))))...))))))))", "Tm": 47.1}
{"substance": "CGACGTGCAGTATGTGCTG+CAGCACATCGCGCACGTCG ((((((((...((((((((+))))))))...))))))))", "Tm": 49.9}
{"substance": "CGACGTGCACCATGTGCTG+CAGCACATCAGGCACGTCG ((((((((...((((((((+))))))))...))))))))", "Tm": 42.9}
